Measured values as given in patent publication US10857209B2, “Lysosomal acid lipase and PPAR gamma ligands as immune therapies for cancer treatment” (Indiana University Research and Technology Corporation, priority 2016, dated 2020).

Legend:
PPARγ = target: T1, PPARγ (Mus musculus, UniProt P37238); details: previously reported; cited from earlier work
T1 construct: host or cells: lal-/- mice (lung)
T1 sequence (P37238 1-505): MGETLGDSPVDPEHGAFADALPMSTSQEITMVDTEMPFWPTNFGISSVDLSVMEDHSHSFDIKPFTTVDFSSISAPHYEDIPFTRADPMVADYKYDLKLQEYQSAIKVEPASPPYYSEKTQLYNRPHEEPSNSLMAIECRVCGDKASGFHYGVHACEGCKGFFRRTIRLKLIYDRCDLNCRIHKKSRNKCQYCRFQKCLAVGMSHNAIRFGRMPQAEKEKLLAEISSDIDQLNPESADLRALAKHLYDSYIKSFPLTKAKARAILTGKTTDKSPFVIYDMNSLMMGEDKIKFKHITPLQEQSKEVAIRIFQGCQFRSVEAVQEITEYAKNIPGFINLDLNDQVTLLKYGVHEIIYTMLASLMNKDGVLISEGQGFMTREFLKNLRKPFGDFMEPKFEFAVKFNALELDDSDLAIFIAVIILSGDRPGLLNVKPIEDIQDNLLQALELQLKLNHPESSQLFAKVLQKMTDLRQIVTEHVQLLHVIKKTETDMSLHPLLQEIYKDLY

Ly6G+CD11b+ cells = experiment: Flow cytometry of Ly6G+CD11b+ cells in CCSP-Tg/KO mice; format: in vivo, mouse
Protocol: For immune cell profile analysis, single cells from the lung, bone marrow, spleen and blood of lal^+/+, lal^−/− and CCSP-Tg/KO triple mice were prepared. Cells were labeled with isotype control or surface-specific primary antibodies at 4° C. for 15 minutes, and then washed and ready for flow cytometry analysis. Anti-CD11b (M1/70) PE-Cyanine7 and anti-Ly6G (RB6-8c5) APC-eFluor® 780 were purchased from eBiosciences (San Diego, Calif., USA). For characterization of tissue-specific expression of the hLAL transgene, single cells from the lungs of lal^+/+, lal^−/− and CCSP-Tg/KO triple mice were prepared and stained. Surfactant protein C (SP-C, AT II epithelial cell marker) Ab and Flag Ab were purchased from Santa Cruz Biotechnology (Dallas, Tex., USA) and Sigma-Aldrich (St. Louis, Mo., USA), respectively. In gated SP-C^+ cells, the number of the Flag^+ cells were analyzed by flow cytometry and calculated based on M1, which is defined by isotype control. Whole spleen cells were used as a control, in which the number of the Flag^+ cells was analyzed. For flow cytometry analysis, ≥30,000 cells were acquired and scored using a LSRII machine (BD Biosciences, San Jose, Calif., USA). Data were processed using the CellQuest software program (BD Biosciences).

cytokines and chemokines = experiment: Cytokines and chemokines in plasma (ELISA) and liver (qPCR) of LAP-Tg/KO mice; format: in vivo, mouse
Protocol: Total RNAs were purified from livers or isolated hepatocytes using RNeasy Mini Kits according to the manufacturer's instruction (Qiagen). Quantitative real-time RT-PCR (qPCR) was performed as described in Wu et al., Blood 2012, 119:115-126). Relative gene expression levels were analyzed using the 2^−ΔΔCT method. Primers of mouse IL-6, mouse granulocyte-macrophage colony-stimulating factor (GM-CSF), mouse macrophage colony-stimulating factor, mouse tumor necrosis factor (TNF)-α, mouse IL-2, mouse IL-4, mouse IL-17, mouse interferon (IFN)-γ, mouse monocyte chemotactic protein-1 (MCP-1), mouse chemokine ligand (CCL)-3, mouse CCL4, mouse CCL5, mouse CXCL10, and glyceraldehyde-3-phosphate dehydrogenase for qPCR were described in Qu et al. Cancer Res 2009, 69:7252-7261; Zhao et al., Oncogene 2014, 34:1938-1948.
The expression levels of IL-6, GM-CSF, MCP-1 (BD Bio-sciences), and CCL5 (R&D Systems, Minneapolis, Minn.) in the plasma and hepatocyte culture medium were measured using enzyme-linked immunosorbent assay (ELISA) kits according to the manufacturer's instructions.

[1] = Tissue lipid storage in LAP-Tg/KO mice (hepatocyte-specific hLAL expression); format: in vivo, mouse; details: hepatocyte transgenic expression in lal−/− mice (doxycycline-untreated LAP-Tg/KO)
Description: LAP-tTA/(TetO)7-CMV-hLAL; lal^−/− (LAP-Tg/KO) triple mice of the FVB/N background was established by cross-breeding of LAP-tTA transgenic mice (Jackson's Laboratory, Bar Harbor, Me.) with a previously generated (tetO)7-CMV-hLAL transgenic mice into lal^−/− mice. This triple transgenic mouse model was hepatocyte-specific Tet-off expression of wild-type hLAL in lal^−/− mice under the control of the LAP. All scientific protocols that involved the use of animals were approved by the Institutional Animal Care and Use Committee of Indiana University School of Medicine and followed guidelines established by the Panel on Euthanasia of the American Veterinary Medical Association. Animals were housed in a secured animal facility at Indiana University School of Medicine.
Total tissue lipids were extracted from the liver and small intestine by the Folch method (Folch et al., J Biol. Chem 1957, […]:497-509). Concentrations of CEs and TGs were determined as described in Due et al., J Lipid Res 2001, 42:489-500 and Du et al., J Immunol 2009, 182:1648-1659).
Frozen tissue sections were prepared from the liver and intestine after a standard cryostat procedure. Tissue section slides were stained with Oil Red-O solution (0.5% in propylene glycol) in a 60° C. oven for 10 minutes and placed in 85% propylene glycol for 1 minute; slides were counter-stained in hematoxylin.

bone marrow cells = experiment: Transwell assay of bone marrow cell transendothelial migration towards BALF; format: cell-based, mouse; details: BALF from doxycycline-treated CCSP-Tg/KO mice in lower chamber; 4 hours
Protocol: Transwell assay was used to determine cell transendothelial migration. ECs were added to the upper chamber of 24-well 8.0-μm-pore Transwell plates (Corning, Corning, N.Y., USA), and incubated at 37° C., 5% CO2 for 48 hours to form an EC monolayer. The supernatant was then removed, and CELLTRACKER™ Green 5-Chloromethylfluorescein Diacetate (CMFDA) (Invitrogen, Grand Island, N.Y., USA)-labeled bone marrow cells (1×10^4 cells in 200 μL media) were added to the upper well. After 4 hours, transendothelial migration of bone marrow cells was determined by counting their numbers in the lower chamber under 5 random microscopic fields.

[2] = doxycycline-treated CCSP-Tg/KO mice
[3] = doxycycline-untreated LAP-Tg/KO triple mice (hLAL on)

## 9-hydroxyoctadecadienoic acid [9-HODE]
PPARγ
  lal−/− pulmonary inflammation and aberrant gene expression: significantly rescued

B1: hLAL: human lysosomal acid lipase expressed from a doxycycline-controlled tissue-specific transgene in lal−/− mice; never administered as a protein (protein)
chain: GPKPVVFLQHGLLADSSNWVTNLANSSLGFILADAGFDVWMGNSRGNTWSRKHKTLSVSQDEFWAFSYDEMAKYDLPASINFILNKTGQEQVYYVGHSQGTTIGFIAFSQIPELAKRIKMFFALGPVASVAFCTSPMAKLGRLPDHLIKDLFGDKEFLPQSAFLKWLGTHVCTHVILKELCGNLCFLLCGFNERNLNMSRVDVYTTHSPAGTSVQNMLHWSQAVKFQKFQAFDWGSSAKNYFHYNQSYPPTYNVKDMLVPTAVWSGGHDWLADVYDVNILLTQITNLVFHESIPEWEHLDFIWGLDAPWRLYNKIINLMRKYQ
modifications: left off: small tags and cut ends
notes: human lysosomal acid lipase expressed from a doxycycline-controlled tissue-specific transgene in lal−/− mice; never administered as a protein
Ly6G+CD11b+ cells; doxycycline-treated (hLAL on) vs untreated CCSP-Tg/KO mice
  percentage of Ly6G+CD11b+ cells in the lung: significantly decreased
Ly6G+CD11b+ cells; [2]
  Ly6G+CD11b+ cell accumulation in the blood: reduced
  Ly6G+CD11b+ cells in the spleen and bone marrow: no reversing effect
Cytokines and chemokines; [3]
  liver IL-4 and IL-17 mRNA levels: unchanged
  liver mRNA levels of IL-2 and IFN-γ: reduced mRNA levels
  liver mRNA levels of IL-6, GM-CSF, M-CSF and TNF-α: significantly down-regulated
  liver mRNA of chemokines MCP-1, CCL3, CCL4, CCL5 and CXCL10: markedly down-regulated
Cytokines and chemokines; untreated (hLAL on) vs doxycycline-treated LAP-Tg/KO mice
  plasma concentrations of IL-6, GM-CSF, MCP-1 and CCL5 (ELISA): decreased
[1]
  lipid storage (cholesterol and triglyceride) in liver, spleen and small intestine: completely cleaned up
Bone marrow cells
  bone marrow cell transendothelial migration: decreased bone marrow cell transendothelial migration
